{"source": "paper PMC11510292", "about": "“Heterobivalent Dual-Target Peptide for Integrin-αvβ3 and Neuropeptide Y Receptors on Breast Tumor” (Pharmaceuticals, 2024)", "key": {"[1]": {"experiment": "Biodistribution in SCID mice bearing MCF-7 xenografts", "format": "in vivo", "conditions": "female, mouse, total radioactivity; for tissue uptake at 1 h / tissue uptake per volume at 1 h: SCID, MCF-7 model, 60 min p.i., 0.1 mL/18.5 MBq IV; for tissue uptake per volume at 1 h: whole blood", "procedure": "(§1) To evaluate the uptake of the radiolabeled peptide by breast tumors, additional biodistribution studies were performed in SCID mice bearing MCF-7 and MDA-MB-231 xenografts (Table 2). […] The tumor uptakes of the radiolabeled conjugate were 9.30 ± 3.25% for MCF-7 and 4.93 ± 1.01% for MDA-MB-231 (Figure 5). The tumor-to-muscle ratios were 5.65 ± 0.94 for the MCF-7 model and 7.78 ± 3.20 for the MDA-MB-231 model (Figure 6).\n(§2) The animals used in this experiment were provided by the Nuclear and Energy Research Institute (IPEN/CNEN-SP) vivarium. Every effort was made to minimize animal suffering per International Ethical Guidelines. The experimental protocols used in this study were approved by the Scientific Ethics Committee of the IPEN/CNEN-SP. Adult female SCID mice were maintained under controlled environmental conditions (12 h light-dark cycle; constant temperature 21 ± 2 °C), with free access to water and food. Suspensions of cells (5 × 10^6 in 0.1 mL) were subcutaneously injected into the upper back regions of the mice.\n(§3) […] Animals were deeply anesthetized and euthanized at the corresponding biodistribution time point. Blood, brain, spleen, heart, stomach, liver, lungs, kidneys, pancreas, muscle, bone, small intestine, and large intestine were collected and weighed. The radioactivity of each organ/tissue was then determined using the above-mentioned automatic gamma counter. The radioactivity was evaluated as the percentage of injected activity per gram of organ/tissue (%IA/g), using the same injected dose activity as a standard. Receptor-blocking studies in tumor models were also carried out by co-administration of 100 μg of cold-conjugated peptide along with radiopeptide."}, "[2]": {"experiment": "Biodistribution in SCID mice bearing MDA-MB-231 xenografts", "format": "in vivo", "conditions": "female, mouse, total radioactivity; for tissue uptake at 1 h / tissue uptake per volume at 1 h: SCID, MDA-MB231 model, 60 min p.i., 0.1 mL/18.5 MBq IV; for tissue uptake per volume at 1 h: whole blood", "procedure": "as §1, §2, §3"}, "[3]": {"conditions": "brain, Non-Block, n = 5, read-out: Brain uptake"}, "[4]": {"conditions": "heart, Block with excess cold peptide, n = 3, read-out: Heart uptake"}, "[5]": {"conditions": "heart, Non-Block, n = 5, read-out: Heart uptake"}, "[6]": {"conditions": "kidneys, Block with excess cold peptide, n = 3, read-out: Kidneys uptake"}, "[7]": {"conditions": "kidneys, Non-Block, n = 5, read-out: Kidneys uptake"}, "[8]": {"conditions": "large intestine, Block with excess cold peptide, n = 3, read-out: Large Intestine uptake"}, "[9]": {"conditions": "large intestine, Non-Block, n = 5, read-out: Large Intestine uptake"}, "[10]": {"conditions": "liver, Block with excess cold peptide, n = 3, read-out: Liver uptake"}, "[11]": {"conditions": "liver, Non-Block, n = 5, read-out: Liver uptake"}, "[12]": {"conditions": "lungs, Block with excess cold peptide, n = 3, read-out: Lungs uptake"}, "[13]": {"conditions": "lungs, Non-Block, n = 5, read-out: Lungs uptake"}, "[14]": {"conditions": "muscle, Block with excess cold peptide, n = 3, read-out: Muscle uptake"}, "[15]": {"conditions": "muscle, Non-Block, n = 5, read-out: Muscle uptake"}, "[16]": {"conditions": "pancreas, Block with excess cold peptide, n = 3, read-out: Pancreas uptake"}, "[17]": {"conditions": "pancreas, Non-Block, n = 5, read-out: Pancreas uptake"}, "[18]": {"conditions": "small intestine, Block with excess cold peptide, n = 3, read-out: Small Intestine uptake"}, "[19]": {"conditions": "small intestine, Non-Block, n = 5, read-out: Small Intestine uptake"}, "[20]": {"conditions": "spleen, Block with excess cold peptide, n = 3, read-out: Spleen uptake"}, "[21]": {"conditions": "spleen, Non-Block, n = 5, read-out: Spleen uptake"}, "[22]": {"conditions": "stomach, Block with excess cold peptide, n = 3, read-out: Stomach uptake"}, "[23]": {"conditions": "stomach, Non-Block, n = 5, read-out: Stomach uptake"}, "[24]": {"conditions": "tumor, Non-Block, n = 5, read-out: Tumor uptake"}, "[25]": {"conditions": "Block with excess cold peptide, n = 3"}}}
{"smiles": "CCCC[C@H](NC(=O)[C@H](CCCNC(=N)N)NC(=O)[C@H](Cc1c[nH]c2ccccc12)NC(=O)[C@H](CSCC(=O)NCCCC[C@@H]1NC(=O)[C@@H](Cc2ccccc2)NC(=O)[C@H](CC(=O)O)NC(=O)CNC(=O)[C@H](CCCNC(=N)N)NC1=O)NC(=O)[C@@H]1CCCN1C(=O)[C@H](CC(N)=O)NC(=O)[C@@H](NC(=O)COCCOCCNC(=O)c1ccc(NN)nc1)[C@@H](C)CC)C(=O)N[C@@H](CCCNC(=N)N)C(=O)N[C@@H](Cc1ccc(O)cc1)C(N)=O", "note": "[[^99mTc]HYNIC-cRGDfk-NPY, metal not drawn]", "values": [{"measurement": "tissue uptake at 1 h", "setting": "[1]; [3]", "value": "0.16 ± 0.06", "unit": "%ID/g"}, {"measurement": "tissue uptake at 1 h", "setting": "[1]; [4]", "value": "0.65 ± 0.24", "unit": "%ID/g"}, {"measurement": "tissue uptake at 1 h", "setting": "[1]; [5]", "value": "1.53 ± 0.45", "unit": "%ID/g"}, {"measurement": "tissue uptake at 1 h", "setting": "[1]; [6]", "value": "20.8 ± 7.02", "unit": "%ID/g"}, {"measurement": "tissue uptake at 1 h", "setting": "[1]; [7]", "value": "24.6 ± 8.6", "unit": "%ID/g"}, {"measurement": "tissue uptake at 1 h", "setting": "[1]; [8]", "value": "3.91 ± 2.11", "unit": "%ID/g"}, {"measurement": "tissue uptake at 1 h", "setting": "[1]; [9]", "value": "6.41 ± 1.63", "unit": "%ID/g"}, {"measurement": "tissue uptake at 1 h", "setting": "[1]; [10]", "value": "1.84 ± 0.13", "unit": "%ID/g"}, {"measurement": "tissue uptake at 1 h", "setting": "[1]; [11]", "value": "3.61 ± 0.73", "unit": "%ID/g"}, {"measurement": "tissue uptake at 1 h", "setting": "[1]; [12]", "value": "1.59 ± 0.34", "unit": "%ID/g"}, {"measurement": "tissue uptake at 1 h", "setting": "[1]; [13]", "value": "3.58 ± 1.22", "unit": "%ID/g"}, {"measurement": "tissue uptake at 1 h", "setting": "[1]; [14]", "value": "0.59 ± 0.37", "unit": "%ID/g"}, {"measurement": "tissue uptake at 1 h", "setting": "[1]; [15]", "value": "1.56 ± 1.41", "unit": "%ID/g"}, {"measurement": "tissue uptake at 1 h", "setting": "[1]; [16]", "value": "1.12 ± 0.42", "unit": "%ID/g"}, {"measurement": "tissue uptake at 1 h", "setting": "[1]; [17]", "value": "1.62 ± 0.3", "unit": "%ID/g"}, {"measurement": "tissue uptake at 1 h", "setting": "[1]; [18]", "value": "3.77 ± 0.95", "unit": "%ID/g"}, {"measurement": "tissue uptake at 1 h", "setting": "[1]; [19]", "value": "10.3 ± 2.18", "unit": "%ID/g"}, {"measurement": "tissue uptake at 1 h", "setting": "[1]; [20]", "value": "2.53 ± 0.74", "unit": "%ID/g"}, {"measurement": "tissue uptake at 1 h", "setting": "[1]; [21]", "value": "5.33 ± 1.88", "unit": "%ID/g"}, {"measurement": "tissue uptake at 1 h", "setting": "[1]; [22]", "value": "2.98 ± 0.57", "unit": "%ID/g"}, {"measurement": "tissue uptake at 1 h", "setting": "[1]; [23]", "value": "6.04 ± 1.15", "unit": "%ID/g"}, {"measurement": "tissue uptake at 1 h", "setting": "[1]; tumor, Block with excess cold peptide, n = 3, p > 0.05 vs non-block, read-out: Tumor uptake", "value": "4.41 ± 2.13", "unit": "%ID/g"}, {"measurement": "tissue uptake at 1 h", "setting": "[1]; [24]", "value": "9.3 ± 3.25", "unit": "%ID/g"}, {"measurement": "tissue uptake per volume at 1 h", "setting": "[1]; [25]", "value": "0.92 ± 0.07", "unit": "%ID/mL"}, {"measurement": "tissue uptake per volume at 1 h", "setting": "[1]; Non-Block, n = 5", "value": "1.66 ± 0.89", "unit": "%ID/mL"}, {"measurement": "tissue to tissue ratio at 1 h", "setting": "[1]; tumor and muscle, 37 MBq, MCF-7 tumor-bearing SCID mice, 1 h after IV injection, n = 5", "value": "5.65 ± 0.94"}, {"measurement": "tissue uptake at 1 h", "setting": "[2]; bone, Block with excess cold peptide, n = 3, read-out: Bone uptake", "value": "0.53 ± 0.16", "unit": "%ID/g"}, {"measurement": "tissue uptake at 1 h", "setting": "[2]; bone, Non-Block, n = 5, read-out: Bone uptake", "value": "1.22 ± 0.28", "unit": "%ID/g"}, {"measurement": "tissue uptake at 1 h", "setting": "[2]; brain, Block with excess cold peptide, n = 3, read-out: Brain uptake", "value": "0.09 ± 0.01", "unit": "%ID/g"}, {"measurement": "tissue uptake at 1 h", "setting": "[2]; [3]", "value": "0.18 ± 0.04", "unit": "%ID/g"}, {"measurement": "tissue uptake at 1 h", "setting": "[2]; [4]", "value": "0.74 ± 0.2", "unit": "%ID/g"}, {"measurement": "tissue uptake at 1 h", "setting": "[2]; [5]", "value": "1.48 ± 0.29", "unit": "%ID/g"}, {"measurement": "tissue uptake at 1 h", "setting": "[2]; [6]", "value": "13 ± 2.68", "unit": "%ID/g"}, {"measurement": "tissue uptake at 1 h", "setting": "[2]; [7]", "value": "19.3 ± 2.89", "unit": "%ID/g"}, {"measurement": "tissue uptake at 1 h", "setting": "[2]; [8]", "value": "2.22 ± 0.98", "unit": "%ID/g"}, {"measurement": "tissue uptake at 1 h", "setting": "[2]; [9]", "value": "5.18 ± 0.87", "unit": "%ID/g"}, {"measurement": "tissue uptake at 1 h", "setting": "[2]; [10]", "value": "1.41 ± 0.62", "unit": "%ID/g"}, {"measurement": "tissue uptake at 1 h", "setting": "[2]; [11]", "value": "3.75 ± 0.51", "unit": "%ID/g"}, {"measurement": "tissue uptake at 1 h", "setting": "[2]; [12]", "value": "1.95 ± 0.6", "unit": "%ID/g"}, {"measurement": "tissue uptake at 1 h", "setting": "[2]; [13]", "value": "3.27 ± 0.47", "unit": "%ID/g"}, {"measurement": "tissue uptake at 1 h", "setting": "[2]; [14]", "value": "0.33 ± 0.02", "unit": "%ID/g"}, {"measurement": "tissue uptake at 1 h", "setting": "[2]; [15]", "value": "0.88 ± 0.13", "unit": "%ID/g"}, {"measurement": "tissue uptake at 1 h", "setting": "[2]; [16]", "value": "0.7 ± 0.21", "unit": "%ID/g"}, {"measurement": "tissue uptake at 1 h", "setting": "[2]; [17]", "value": "1.35 ± 0.35", "unit": "%ID/g"}, {"measurement": "tissue uptake at 1 h", "setting": "[2]; [18]", "value": "2.16 ± 0.74", "unit": "%ID/g"}, {"measurement": "tissue uptake at 1 h", "setting": "[2]; [19]", "value": "8.3 ± 1.36", "unit": "%ID/g"}, {"measurement": "tissue uptake at 1 h", "setting": "[2]; [20]", "value": "1.51 ± 0.22", "unit": "%ID/g"}, {"measurement": "tissue uptake at 1 h", "setting": "[2]; [21]", "value": "5.02 ± 0.63", "unit": "%ID/g"}, {"measurement": "tissue uptake at 1 h", "setting": "[2]; [22]", "value": "2.05 ± 0.33", "unit": "%ID/g"}, {"measurement": "tissue uptake at 1 h", "setting": "[2]; [23]", "value": "5.63 ± 0.96", "unit": "%ID/g"}, {"measurement": "tissue uptake at 1 h", "setting": "[2]; tumor, Block with excess cold peptide, n = 3, p < 0.05 vs non-block, read-out: Tumor uptake", "value": "2.3 ± 0.41", "unit": "%ID/g"}, {"measurement": "tissue uptake at 1 h", "setting": "[2]; [24]", "value": "4.93 ± 1.01", "unit": "%ID/g"}, {"measurement": "tissue uptake per volume at 1 h", "setting": "[2]; [25]", "value": "1.4 ± 0.21", "unit": "%ID/mL"}, {"measurement": "tissue uptake per volume at 1 h", "setting": "[2]; Non-Block, n = 5", "value": "1.8 ± 1.03", "unit": "%ID/mL"}, {"measurement": "tissue to tissue ratio at 1 h", "setting": "[2]; tumor and muscle, 37 MBq, MDA-MB-231 tumor-bearing SCID mice, 1 h after IV injection, n = 5", "value": "7.78 ± 3.2"}]}
